T1: human Notch3 NRR recombinant protein (Notch3 NRR_Avi_His tag) (human)
T1 construct: Purified from CHO-PACE cells; the entry includes the C-terminal Avi and His6 tag
T1 chain: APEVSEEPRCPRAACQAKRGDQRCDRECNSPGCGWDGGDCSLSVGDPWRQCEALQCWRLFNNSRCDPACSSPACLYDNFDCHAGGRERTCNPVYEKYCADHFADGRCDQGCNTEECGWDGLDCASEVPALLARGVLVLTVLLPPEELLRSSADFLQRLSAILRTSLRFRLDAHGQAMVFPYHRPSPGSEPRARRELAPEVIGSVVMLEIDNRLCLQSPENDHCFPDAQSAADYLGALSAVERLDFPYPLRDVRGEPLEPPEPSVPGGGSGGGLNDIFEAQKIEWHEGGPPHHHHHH

T2: mouse Notch3 NRR recombinant protein (Notch3 NRR_Avi_His tag) (mouse)
T2 construct: The entry includes the C-terminal Avi and His tag; S1-cleaved heterodimer as for the human protein
T2 chain: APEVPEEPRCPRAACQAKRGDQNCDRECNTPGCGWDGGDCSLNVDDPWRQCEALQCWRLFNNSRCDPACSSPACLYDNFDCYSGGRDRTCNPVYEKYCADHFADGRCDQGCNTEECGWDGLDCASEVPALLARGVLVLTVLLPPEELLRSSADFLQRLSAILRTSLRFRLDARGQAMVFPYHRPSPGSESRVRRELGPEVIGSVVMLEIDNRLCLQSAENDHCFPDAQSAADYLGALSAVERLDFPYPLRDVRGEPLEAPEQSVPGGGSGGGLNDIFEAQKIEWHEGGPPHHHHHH

T3: human Notch1 NRR-Fc (human, UniProt P46531 1446-1733, limits assumed)
T3 construct: domain: NRR region; Made in CHO-PACE cells; not shown: human IgG1 Fc fragment
T3 sequence (looked up): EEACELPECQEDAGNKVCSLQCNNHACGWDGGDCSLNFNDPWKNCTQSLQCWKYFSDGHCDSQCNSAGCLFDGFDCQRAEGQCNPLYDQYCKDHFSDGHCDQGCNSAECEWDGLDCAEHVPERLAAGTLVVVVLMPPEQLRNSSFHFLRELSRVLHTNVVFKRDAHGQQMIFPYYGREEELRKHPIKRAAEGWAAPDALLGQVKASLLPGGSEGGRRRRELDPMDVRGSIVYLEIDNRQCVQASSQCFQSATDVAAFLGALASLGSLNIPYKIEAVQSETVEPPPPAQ


Key:
[1] = biological target: T4, full-length human Notch3 expressed on the cell surface (human, UniProt Q9UM47 40-2321); experiment: cell-based ELISA, U2OS/hNotch3 cells
T4 construct: whole, on cells; also called hNotch3; U2OS/hNotch3
T4 sequence (Q9UM47 40-2321): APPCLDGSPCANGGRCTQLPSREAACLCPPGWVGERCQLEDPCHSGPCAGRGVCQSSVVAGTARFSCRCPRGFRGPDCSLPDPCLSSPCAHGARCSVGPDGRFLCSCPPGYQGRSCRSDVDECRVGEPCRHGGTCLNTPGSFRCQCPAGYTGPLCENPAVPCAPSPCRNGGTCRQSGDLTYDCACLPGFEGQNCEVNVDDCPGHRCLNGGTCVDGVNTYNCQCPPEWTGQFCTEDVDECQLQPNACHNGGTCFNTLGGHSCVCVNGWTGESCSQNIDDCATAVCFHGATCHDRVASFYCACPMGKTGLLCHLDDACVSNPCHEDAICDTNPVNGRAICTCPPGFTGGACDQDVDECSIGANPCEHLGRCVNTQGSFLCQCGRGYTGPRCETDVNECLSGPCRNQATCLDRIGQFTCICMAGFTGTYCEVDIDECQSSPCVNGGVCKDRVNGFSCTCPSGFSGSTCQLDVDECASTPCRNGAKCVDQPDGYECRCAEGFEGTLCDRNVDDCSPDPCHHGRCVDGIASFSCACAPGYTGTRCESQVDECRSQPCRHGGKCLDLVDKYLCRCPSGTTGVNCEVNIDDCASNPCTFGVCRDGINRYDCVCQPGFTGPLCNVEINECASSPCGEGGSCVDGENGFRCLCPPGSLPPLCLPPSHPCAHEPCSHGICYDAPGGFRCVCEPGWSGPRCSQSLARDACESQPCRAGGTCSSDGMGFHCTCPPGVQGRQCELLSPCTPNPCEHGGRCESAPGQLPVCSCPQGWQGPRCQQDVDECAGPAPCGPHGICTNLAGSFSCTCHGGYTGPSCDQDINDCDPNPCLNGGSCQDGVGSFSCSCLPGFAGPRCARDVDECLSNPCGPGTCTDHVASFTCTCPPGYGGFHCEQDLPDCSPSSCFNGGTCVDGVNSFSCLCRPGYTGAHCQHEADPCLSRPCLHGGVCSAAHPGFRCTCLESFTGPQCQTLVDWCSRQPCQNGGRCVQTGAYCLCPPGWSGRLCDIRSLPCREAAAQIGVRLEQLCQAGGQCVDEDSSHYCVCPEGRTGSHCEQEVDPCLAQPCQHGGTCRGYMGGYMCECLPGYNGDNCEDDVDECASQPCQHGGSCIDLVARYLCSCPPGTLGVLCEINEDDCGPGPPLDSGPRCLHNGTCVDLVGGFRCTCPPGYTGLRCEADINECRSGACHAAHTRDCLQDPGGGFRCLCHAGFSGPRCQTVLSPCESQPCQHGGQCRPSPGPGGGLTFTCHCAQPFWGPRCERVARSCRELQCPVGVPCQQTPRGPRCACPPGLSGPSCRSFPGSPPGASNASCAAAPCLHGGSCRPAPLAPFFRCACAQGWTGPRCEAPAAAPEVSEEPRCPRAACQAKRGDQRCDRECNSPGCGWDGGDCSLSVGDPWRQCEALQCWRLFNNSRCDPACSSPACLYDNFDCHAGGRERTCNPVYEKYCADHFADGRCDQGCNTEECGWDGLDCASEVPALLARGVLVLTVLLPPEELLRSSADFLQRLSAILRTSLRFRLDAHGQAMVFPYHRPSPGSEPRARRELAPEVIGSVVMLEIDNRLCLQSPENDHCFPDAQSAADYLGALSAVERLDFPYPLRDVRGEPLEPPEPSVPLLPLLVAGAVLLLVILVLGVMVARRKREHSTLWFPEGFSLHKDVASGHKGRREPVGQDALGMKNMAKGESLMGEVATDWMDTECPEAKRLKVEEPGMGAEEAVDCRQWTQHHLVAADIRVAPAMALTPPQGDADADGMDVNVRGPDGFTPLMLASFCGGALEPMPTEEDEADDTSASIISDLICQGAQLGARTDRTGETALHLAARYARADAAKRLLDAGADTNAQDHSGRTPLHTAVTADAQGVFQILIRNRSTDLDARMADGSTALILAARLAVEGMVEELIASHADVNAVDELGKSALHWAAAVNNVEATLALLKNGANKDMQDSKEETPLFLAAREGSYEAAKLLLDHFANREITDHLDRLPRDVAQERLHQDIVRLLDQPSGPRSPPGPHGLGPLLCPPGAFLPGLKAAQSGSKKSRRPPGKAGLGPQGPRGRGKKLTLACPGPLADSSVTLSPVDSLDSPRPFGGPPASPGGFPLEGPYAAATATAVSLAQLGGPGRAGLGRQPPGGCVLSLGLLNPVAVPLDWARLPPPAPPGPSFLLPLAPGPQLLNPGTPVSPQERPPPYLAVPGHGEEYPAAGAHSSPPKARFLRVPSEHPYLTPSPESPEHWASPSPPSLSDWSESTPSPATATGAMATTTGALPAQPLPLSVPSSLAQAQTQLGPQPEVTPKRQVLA
Procedure: (§1) U-2 OS cells stably over-expressing human or mouse full length Notch3 protein on cell surface (hereinafter U2OS/hNotch3 and U2OS/mNotch3, respectively) were plated at 50,000 cells/well in 96 well plates (white opaque, BD/VWR) the day before ELISA assay. On the day of the ELISA, culture media was removed from wells and serially diluted (1:3 in blocking buffer) antibody solutions were applied to the plate. Plates were incubated at room temperature for 2 hours before being washed with PBS-Mg/Ca. HRP-conjugated secondary antibody was then applied and incubated with cells for 1 hour as described above for recombinant protein ELISA. Plates were washed with PBS-Mg/Ca before being developed with Pico-Chemiluminescent developing kit (Thermal Scientific), and chemiluminescence measurements were performed per manufacturer's instructions. Data plotting and analyses were performed with Microsoft Excel and Graphpad-Prism software.

[2] = biological target: T4, full-length human Notch3 expressed on …; experiment: cell-based ELISA, MDA-MB-468 cells; SD 0.176
Procedure: (§2) On the day of the ELISA, culture media was removed from wells and serially diluted (1:3 in DPBS with calcium chloride and magnesium chloride (Ca/Mg) and 1% BSA) antibody and ADC solutions were applied to the plate. Plates were incubated at room temperature for 2 hours before washed with DPBS with Ca/Mg and 1% BSA. HRP-conjugated secondary antibody was then applied and incubated with cells for 1 hour. Plates were washed with DPBS with Ca/Mg and 1% BSA before being developed with Pico-Chemiluminescent developing kit (Thermal Scientific), and chemiluminescence measurements were performed per manufacturer's instructions. Data plotting and analyses were performed with Microsoft Excel and Graphpad-Prism software.

[3] = biological target: T4, full-length human Notch3 expressed on …; experiment: competition ELISA on U2OS/hNotch3 cells; competitor 0.8 nM biotinylated ch75
Procedure: (§3) 96 well cell culture plates were seeded with U2OS/hNotch3 cells (cell culture plate, Co-star). […] After incubation for 2 hours, the plates were washed, as described above, and HRP-conjugated streptavidin (Southern Biotech) diluted 1:5000 in blocking buffer was applied. After incubation with streptavidin for 30 minutes, the plates were washed again before being developed with TMB solution for 10 minutes. […] Data plotting and analyses were performed with Microsoft Excel and Graphpad-Prism software.

[4] = biological target: T1, human Notch3 NRR recombinant protein …; experiment: SPR (Biacore T100), antibody captured on anti-human IgG-Fc, Notch3 NRR as analyte, 1:1 Langmuir fit
Procedure: The kinetic constants of the anti-Notch3 NRR interactions were determined by surface plasmon resonance (Biacore® T100, Biacore Inc., Piscataway, N.J.). Flow cells of a CM5 chip were immobilized with approximately 10,000 response units (RU) of anti-human IgG-Fc (Biacore®) in 10 mM Glycine, pH 5.0 at 10 μl/min for 600 seconds. […] Association of four concentrations of human Notch3 NRR recombinant protein (from 3.7-100 nM) and a zero concentration (running buffer) at 100 μl/min were recorded for 3 minutes in TBS with 1 mM CaCl₂. Dissociation of the complexes was measured for 10 minutes. The surface of the chip was regenerated by injecting 3M MgCl₂ with 3 mM EGTA for 60 seconds at 10 μl/min. Curves obtained after subtraction of the reference and buffer signals were fitted to a 1:1 Langmuir binding model with Biacore® T100 Evaluation Software (Biacore®).

[5] = biological target: T4, full-length human Notch3 expressed on …; experiment: cell-based ELISA, HCC2429 cells; SD 0.053
Procedure: as §2

[6] = biological target: T4, full-length human Notch3 expressed on …; experiment: cell-based ELISA, U2OS/hNotch3 cells; SD 0.160
Procedure: as §2

[7] = biological target: T2, mouse Notch3 NRR recombinant protein …; experiment: ELISA, recombinant protein, hybridoma supernatant
[8] = biological target: T1, human Notch3 NRR recombinant protein …; experiment: ELISA, recombinant protein, hybridoma supernatant
[9] = biological target: T4, full-length human Notch3 expressed on …; experiment: cell-based or functional assay
[10] = biological target: T4, full-length human Notch3 expressed on …; experiment: cell-based ELISA, U2OS/hNotch3 cells; SD 0.008
Procedure: as §2

[11] = biological target: T4, full-length human Notch3 expressed on …; experiment: cell-based ELISA, MDA-MB-468 cells; SD 0.046
Procedure: as §2

[12] = biological target: T4, full-length human Notch3 expressed on …; experiment: cell-based or functional assay; remark: listed apart in the source
[13] = biological target: T4, full-length human Notch3 expressed on …; experiment: cell-based ELISA, HCC2429 cells; SD 0.034
Procedure: as §2

[14] = biological target: T4, full-length human Notch3 expressed on …; experiment: cell-based ELISA, U2OS/hNotch3 cells; SD 0.029
Procedure: as §2

[15] = biological target: T4, full-length human Notch3 expressed on …; experiment: cell-based ELISA, MDA-MB-468 cells; SD 0.063
Procedure: as §2

[16] = biological target: T4, full-length human Notch3 expressed on …; experiment: cell-based ELISA, HCC2429 cells; SD 0.025
Procedure: as §2

[17] = biological target: T5, full-length mouse Notch3 expressed on the cell surface (mouse, UniProt Q61982 40-2318); experiment: cell-based ELISA, U2OS/mNotch3 cells
T5 construct: whole, on cells; Over-expressed on U-2 OS cells; also called U2OS/mNotch3
T5 sequence (Q61982 40-2318): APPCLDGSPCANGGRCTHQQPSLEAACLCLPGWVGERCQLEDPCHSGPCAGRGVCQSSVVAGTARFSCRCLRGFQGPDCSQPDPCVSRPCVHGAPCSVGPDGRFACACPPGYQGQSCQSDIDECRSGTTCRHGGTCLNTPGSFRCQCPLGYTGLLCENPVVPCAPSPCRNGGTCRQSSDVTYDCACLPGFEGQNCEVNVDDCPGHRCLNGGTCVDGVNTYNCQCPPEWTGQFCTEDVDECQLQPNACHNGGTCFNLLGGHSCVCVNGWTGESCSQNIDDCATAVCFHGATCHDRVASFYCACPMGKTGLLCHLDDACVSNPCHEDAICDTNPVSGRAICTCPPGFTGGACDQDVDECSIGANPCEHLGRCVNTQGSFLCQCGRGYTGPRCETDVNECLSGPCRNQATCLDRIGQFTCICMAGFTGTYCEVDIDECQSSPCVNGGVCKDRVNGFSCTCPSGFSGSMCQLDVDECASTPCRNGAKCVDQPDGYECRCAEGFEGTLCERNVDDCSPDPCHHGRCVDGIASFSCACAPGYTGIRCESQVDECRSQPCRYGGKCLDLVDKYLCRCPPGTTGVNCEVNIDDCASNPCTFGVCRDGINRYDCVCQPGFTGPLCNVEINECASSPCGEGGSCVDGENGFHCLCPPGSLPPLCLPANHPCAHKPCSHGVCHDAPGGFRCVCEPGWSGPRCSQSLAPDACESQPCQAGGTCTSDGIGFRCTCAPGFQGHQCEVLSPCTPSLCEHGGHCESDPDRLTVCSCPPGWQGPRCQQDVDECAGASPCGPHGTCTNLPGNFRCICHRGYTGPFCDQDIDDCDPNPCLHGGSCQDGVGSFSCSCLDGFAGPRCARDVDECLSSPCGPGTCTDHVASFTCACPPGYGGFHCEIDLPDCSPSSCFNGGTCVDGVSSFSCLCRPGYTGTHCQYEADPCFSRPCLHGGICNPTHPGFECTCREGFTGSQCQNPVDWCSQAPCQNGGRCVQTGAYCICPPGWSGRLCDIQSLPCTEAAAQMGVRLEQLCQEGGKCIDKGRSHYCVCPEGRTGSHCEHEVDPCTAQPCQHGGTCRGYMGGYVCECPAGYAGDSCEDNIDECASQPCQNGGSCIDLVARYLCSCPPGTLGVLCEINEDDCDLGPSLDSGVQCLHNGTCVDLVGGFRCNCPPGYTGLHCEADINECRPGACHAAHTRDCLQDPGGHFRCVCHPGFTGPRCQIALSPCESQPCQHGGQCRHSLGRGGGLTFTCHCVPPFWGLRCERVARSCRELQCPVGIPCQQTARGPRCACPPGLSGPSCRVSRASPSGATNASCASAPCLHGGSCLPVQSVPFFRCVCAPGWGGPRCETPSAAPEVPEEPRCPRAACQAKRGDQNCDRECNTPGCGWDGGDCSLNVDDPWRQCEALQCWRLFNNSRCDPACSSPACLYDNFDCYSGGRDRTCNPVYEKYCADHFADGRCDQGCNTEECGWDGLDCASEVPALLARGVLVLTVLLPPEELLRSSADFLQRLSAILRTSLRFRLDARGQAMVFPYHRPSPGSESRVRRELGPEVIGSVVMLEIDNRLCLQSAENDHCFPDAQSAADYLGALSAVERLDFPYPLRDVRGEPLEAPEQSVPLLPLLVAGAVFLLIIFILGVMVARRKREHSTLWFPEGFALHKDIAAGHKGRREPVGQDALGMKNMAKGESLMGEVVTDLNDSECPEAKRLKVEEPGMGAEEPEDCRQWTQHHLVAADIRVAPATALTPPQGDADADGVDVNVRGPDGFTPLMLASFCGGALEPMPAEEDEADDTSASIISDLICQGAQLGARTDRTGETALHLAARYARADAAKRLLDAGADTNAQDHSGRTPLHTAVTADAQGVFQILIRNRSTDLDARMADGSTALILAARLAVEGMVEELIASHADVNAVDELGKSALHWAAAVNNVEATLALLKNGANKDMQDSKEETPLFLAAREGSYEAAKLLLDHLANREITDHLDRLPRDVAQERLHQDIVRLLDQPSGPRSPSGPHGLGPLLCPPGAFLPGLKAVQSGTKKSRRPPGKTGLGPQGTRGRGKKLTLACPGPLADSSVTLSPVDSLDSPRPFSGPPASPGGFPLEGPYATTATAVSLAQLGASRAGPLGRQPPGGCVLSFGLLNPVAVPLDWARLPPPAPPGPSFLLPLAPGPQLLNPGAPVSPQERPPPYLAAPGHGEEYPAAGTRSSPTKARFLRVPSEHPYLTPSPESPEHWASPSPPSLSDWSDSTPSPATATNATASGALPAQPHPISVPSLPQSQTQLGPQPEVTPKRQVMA
Procedure: as §1

[18] = biological target: T4, full-length human Notch3 expressed on …; experiment: cell-based ELISA, HCC2429 cells; SD 0.009
Procedure: as §2

[19] = biological target: T4, full-length human Notch3 expressed on …; experiment: cell-based ELISA, MDA-MB-468 cells; SD 0.054
Procedure: as §2

[20] = biological target: T4, full-length human Notch3 expressed on …; experiment: competition ELISA on U2OS/hNotch3 cells; competitor 0.8 nM biotinylated ch28
Procedure: as §3

[21] = biological target: T4, full-length human Notch3 expressed on …; experiment: cell-based ELISA, U2OS/hNotch3 cells; SD 0.077
Procedure: as §2

[22] = biological target: T1, human Notch3 NRR recombinant protein …; experiment: ELISA, plate-coated recombinant protein
Procedure: Purified human or mouse Notch3 NRR recombinant proteins were coated on CoStar hi-bound 96-well ELISA plates in 100 μl of PBS with Mg/Ca at a concentration of 1 μg/ml overnight. The plates were washed with PBS-Mg/Ca and blocked for 1 hour with 1% BSA in PBS-Mg/Ca. Blocking solution was decanted from the plate and 1:3 serial dilutions of antibodies in blocking solutions were applied to the plate. After incubation at room temperature for 1 hour, plates were washed again with PBS-Mg/Can before HRP (horse radish peroxidase)-conjugated secondary antibody diluted (1:20,000) in blocking buffer was applied. When the primary antibody tested was rat IgG, the secondary antibody was goat anti-rat IgG Fc (Bethyl Biotech); and when the primary antibody was human IgG, the secondary antibody was goat anti-human IgG Fc (Southern Biotech).
After 1 hour incubation with the secondary antibody, plates were washed again, as described above, and TMB substrate solution was added. The developing reaction was allowed for 10 minutes before the stopping solution, 0.18M H₂SO₄, was added.

Notch3-NRR = Notch3-NRR (human); experiment: ELISA: NRR-Fc protein coated at 1 ug/ml, antibody applied at 5 ug/ml, goat anti-human Fc-HRP, TMB, O.D. 450 nM
Procedure: (§4) After 1 hour of incubation, plates were washed with PBS with 0.9 mM Mg²⁺ and Ca²⁺, before secondary goat anti-human Fc antibody conjugated with HRP were applied and incubated on the plates. After washing again, the plates were developed with TMB and the developing reactions were stopped by adding 0.18M H₂SO₄.

human Notch1 NRR-Fc = biological target: T3, human Notch1 NRR-Fc; experiment: as above
Procedure: as §4

Binder | EC50 [1] | EC50 [3] | Kd [4] | IC50 of cytotoxicity, MDA-MB-468/hNotch3 cells, control siRNA [9] | IC50 of cytotoxicity (MTS viability), HCC2429 cells, repeat 1 [12] | IC50 of cytotoxicity (MTS viability), HCC2429 cells, repeat 2 [12] | IC50 of cytotoxicity (MTS viability), MDA-MB-468/hNotch3 cells, repeat 1 [12] | IC50 of cytotoxicity (MTS viability), MDA-MB-468/hNotch3 cells, repeat 2 [12] | IC50 of cytotoxicity (MTS viability), OVCAR3 cells [12] | koff [4] | kon [4] | other results
hu75 (humanized r75 variant VH1.9/VL1.3) (antibody, human IgG1, kappa, V domains shown, Human IgG1/kappa; also called hu75 VH1.9/VL1.3; hu75 VH1.9/V1.3) VH: EVQLVESGGGLVQPGGSLRLSCAASGYAFTDYWMTWVRQAPGKGLEWVAEISPNSGGTNFNEKFKGRFTISVDNAKNSLYLQMNSLRAEDTAVYYCARGEIRYNWFAYWGQGTLVTVSS VL: DIQMTQSPSSLSASVGDRVTITCKASQNVGNNIAWYQQKPGKAPKLLIYYASNRYTGVPSRFSGSGYGTDFTLTISSLQPEDFATYYCQRLYNSPFTFGGGTKVEIKR | 0.22 nM | 1.7 nM | 9.76 nM |  |  |  |  |  |  |  |  | EC50 [2]: 1.28 nM; EC50 [5]: 0.335 nM; EC50 [6]: 0.585 nM
parental rat clone 28 (r28) (antibody, V domains shown, Rat monoclonal antibody from hybridoma, tested as hybridoma supernatant) VH: EVQLVESGGGLVQPGRSLTLSCVASGFTFRDYGMTWIRQAPGKGLTWVAYISSGSNYIYYAEAVKGRFTISRDNAKNTLYLQMTSLRSEDTALYFCTRRGPFVLDAWGQGASVTVSS VL: DIQMTQSPSFLSASVGDRVTINCKASQSINRYLHWFQQKLGEAPKLLIYNANGLQTGIPSRFSGSGSGTDFTLTISSLQSEDVATYFCLQHNTWPDTFGAGTKLELK |  |  |  |  |  |  |  |  |  |  |  | O.D. 450 nM [7]: ≥ 1 O.D. 450 nM; O.D. 450 nM [8]: ≥ 1 O.D. 450 nM
hu28-vc6780 (Notch3-28-v1010-hG1-(C)_mcValCitPABC-#112) (antibody, human IgG1, kappa, V domains shown, vc6780 linker-payload on cysteine residues after partial reduction; sites not specified, Antibody-drug conjugate of hu28) VH: EVQLVESGGGLVQPGGSLRLSCAASGFTFRDYGMTWVRQAPGKGLEWVAYISSGSNYIYYAEAVKGRFTISRDNAKNSLYLQMNSLRAEDTAVYYCARRGPFVLDAWGQGTLVTVSS VL: DIQMTQSPSSLSASVGDRVTITCKASQSINRYLHWYQQKPGKAPKLLIYNANGLQTGVPSRFSGSGSGTDFTLTISSLQPEDFATYYCLQHNTWPDTFGGGTKVEIKR |  |  |  | 2 ng Ab/mL | 148 ng Ab/mL | 2050 ng Ab/mL | 1.3 ng Ab/mL | 3 ng Ab/mL | 17 ng Ab/mL |  |  | EC50 [10]: 0.236 nM; EC50 [11]: 0.242 nM; EC50 [13]: 0.154 nM
hu28-vc0101 (Notch3-28-v1010-hG1-(C)_mcValCitPABC-#54) (antibody, human IgG1, kappa, V domains shown, vc0101 linker-payload on cysteine residues after partial reduction; sites not specified, Antibody-drug conjugate of hu28) VH: EVQLVESGGGLVQPGGSLRLSCAASGFTFRDYGMTWVRQAPGKGLEWVAYISSGSNYIYYAEAVKGRFTISRDNAKNSLYLQMNSLRAEDTAVYYCARRGPFVLDAWGQGTLVTVSS VL: DIQMTQSPSSLSASVGDRVTITCKASQSINRYLHWYQQKPGKAPKLLIYNANGLQTGVPSRFSGSGSGTDFTLTISSLQPEDFATYYCLQHNTWPDTFGGGTKVEIKR |  |  |  | 3 ng Ab/mL | 473 ng Ab/mL | 2940 ng Ab/mL | 3.2 ng Ab/mL | 3 ng Ab/mL | 306 ng Ab/mL |  |  | IC50 of cytotoxicity, MDA-MB-468/hNotch3 cells, Notch3 siRNA (reduced Notch3 expression) [9]: 3340 ng Ab/mL; EC50 [14]: 0.266 nM; EC50 [15]: 0.273 nM; EC50 [16]: 0.176 nM; IC50 of cytotoxicity (MTS viability), MDA-MB-468 cells [12]: 6540 ng Ab/mL; IC50 of cytotoxicity (MTS viability), U2OS/hNotch3 cells [12]: 1330 ng Ab/mL
hu28 (humanized r28 variant VH1.0/VL1.0) (antibody, human IgG1, kappa, V domains shown, Human IgG1/kappa; also called hu28 VH1.0/VL1.0; hu28 VH1.0/V1.0) VH: EVQLVESGGGLVQPGGSLRLSCAASGFTFRDYGMTWVRQAPGKGLEWVAYISSGSNYIYYAEAVKGRFTISRDNAKNSLYLQMNSLRAEDTAVYYCARRGPFVLDAWGQGTLVTVSS VL: DIQMTQSPSSLSASVGDRVTITCKASQSINRYLHWYQQKPGKAPKLLIYNANGLQTGVPSRFSGSGSGTDFTLTISSLQPEDFATYYCLQHNTWPDTFGGGTKVEIKR | 0.093 nM |  | 0.9 nM |  |  |  |  |  |  | 0.000347 s⁻¹ | 386000 M⁻¹ s⁻¹ | EC50 [17]: 0.13 nM; EC50 [18]: 0.132 nM; EC50 [19]: 0.192 nM; EC50 [20]: 3.1 nM; EC50 [21]: 0.172 nM
rat-human chimeric antibody 75 (ch75) (antibody, V domains shown, also called ch75-hIgG1; ch75-hulgG1) VH: QVKLLQSGAALVKPGASVKMSCKASGYAFTDYWVTWVKQSHGKSLEWIGEISPNSGGTNFNEKFKGKATLTVDKSTSTAYMELSRLTSEDSAIYYCTRGEIRYNWFAYWGQGTLVTVSS VL: NIVMTQSPKSMSISVGDRVTMNCKASQNVGNNIAWYQQKPGQSPKLLIYYASNRYTGVPDRFTGGGYGTDFTLTINSMQAEDAAFYYCQRLYNSPFTFGSGTKLEIK | 0.2 nM | 1.3 nM | 17.4 nM |  |  |  |  |  |  | 0.000992 s⁻¹ | 57000 M⁻¹ s⁻¹ | binding result [17]: no binding; EC50 [22]: ≤ 1 nM; O.D. 450 nM (ELISA, relative binding capacity) (Notch3-NRR): 1.72; binding result (human Notch1 NRR-Fc): no binding (tested: 5 ug/ml)
